Values joined by “and” are separate entries in the source; they are usually repeats but may differ in a detail not shown here. Equal entries are not always repeated.
Tests used:
[1] = molecular target: recombinant low-density lipoprotein receptor-related protein 1 (LRP-1) Cluster IV; experiment: SPR; Biacore T200, 25°C, HBS-EP+ with 8 mM CaCl2; LRP-1 (approx. 1300 RU), ASGR1 (approx. 1500 RU) and MRC1 (approx. 13,000 RU) amine-coupled to parallel flow cells of CM5; Metalyse (88, 53, 32 μg/mL) and Mingfule (53, 32, 19 μg/mL) injected at 30 μL/min for 240 s, 150 s dissociation; sensorgram comparison gives a similarity score
[2] = molecular target: mannose receptor C, type 1 (MRC1) (UniProt P22897); experiment: as above
[3] = molecular target: asialoglycoprotein receptor 1 (ASGR1, P01) (UniProt P07306); experiment: as above
[4] = molecular target: fibrin (immobilised human plasma fibrinogen cross-linked on the chip with thrombin and coagulation factor XIII) (human) (UniProt P02671); experiment: SPR; Biacore T200, 25°C, HBS-EP+; fibrinogen amine-coupled to CM5 (aim 12,000 RU) and cross-linked with thrombin and factor XIII; tenecteplase injected at 2, 3 and 4 μg/mL, 5 μL/min, 120 s contact and 120 s dissociation; sensorgram comparison against a corridor (average ± 3 SD, normalised) of three Metalyse lots gives a similarity score
Sequence of UniProt P02671 (P02671 36-866, chain 1 of 3): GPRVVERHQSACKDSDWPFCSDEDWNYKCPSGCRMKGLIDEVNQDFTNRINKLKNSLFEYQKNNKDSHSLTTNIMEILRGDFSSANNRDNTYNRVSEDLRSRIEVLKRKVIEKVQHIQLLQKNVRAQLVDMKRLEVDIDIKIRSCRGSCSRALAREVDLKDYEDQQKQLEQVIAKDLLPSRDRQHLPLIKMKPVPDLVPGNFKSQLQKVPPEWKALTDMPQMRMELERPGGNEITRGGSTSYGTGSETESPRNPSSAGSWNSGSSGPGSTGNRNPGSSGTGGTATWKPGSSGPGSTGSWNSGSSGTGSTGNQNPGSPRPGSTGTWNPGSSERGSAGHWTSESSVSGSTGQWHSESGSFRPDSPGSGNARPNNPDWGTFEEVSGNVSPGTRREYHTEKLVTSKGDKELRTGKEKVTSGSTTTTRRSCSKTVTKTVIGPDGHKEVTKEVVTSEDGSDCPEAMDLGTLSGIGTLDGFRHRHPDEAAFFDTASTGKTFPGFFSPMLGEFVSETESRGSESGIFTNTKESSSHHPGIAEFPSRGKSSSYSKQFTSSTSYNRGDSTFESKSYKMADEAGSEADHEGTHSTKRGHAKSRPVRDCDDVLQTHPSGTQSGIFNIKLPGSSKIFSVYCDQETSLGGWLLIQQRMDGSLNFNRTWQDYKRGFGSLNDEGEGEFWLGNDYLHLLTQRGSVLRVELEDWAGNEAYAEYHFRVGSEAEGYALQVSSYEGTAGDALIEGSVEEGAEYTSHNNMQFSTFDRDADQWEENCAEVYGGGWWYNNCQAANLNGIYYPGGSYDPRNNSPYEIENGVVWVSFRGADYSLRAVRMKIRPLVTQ
Sequence of UniProt P02671 (P02675 45-491, chain 2 of 3, further chain): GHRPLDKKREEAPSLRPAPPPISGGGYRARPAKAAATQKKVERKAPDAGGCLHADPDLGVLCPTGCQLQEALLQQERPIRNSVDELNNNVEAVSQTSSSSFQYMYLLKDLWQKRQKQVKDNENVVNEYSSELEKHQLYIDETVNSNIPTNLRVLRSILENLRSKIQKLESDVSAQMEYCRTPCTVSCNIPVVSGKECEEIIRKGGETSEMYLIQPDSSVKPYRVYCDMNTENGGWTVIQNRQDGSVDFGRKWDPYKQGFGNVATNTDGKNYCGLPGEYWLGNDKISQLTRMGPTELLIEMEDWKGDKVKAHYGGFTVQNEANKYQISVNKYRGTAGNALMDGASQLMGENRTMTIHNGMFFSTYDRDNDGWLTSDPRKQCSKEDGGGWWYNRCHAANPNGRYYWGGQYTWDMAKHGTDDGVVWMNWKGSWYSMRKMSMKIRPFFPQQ
Sequence of UniProt P02671 (P02679 27-453, chain 3 of 3, further chain): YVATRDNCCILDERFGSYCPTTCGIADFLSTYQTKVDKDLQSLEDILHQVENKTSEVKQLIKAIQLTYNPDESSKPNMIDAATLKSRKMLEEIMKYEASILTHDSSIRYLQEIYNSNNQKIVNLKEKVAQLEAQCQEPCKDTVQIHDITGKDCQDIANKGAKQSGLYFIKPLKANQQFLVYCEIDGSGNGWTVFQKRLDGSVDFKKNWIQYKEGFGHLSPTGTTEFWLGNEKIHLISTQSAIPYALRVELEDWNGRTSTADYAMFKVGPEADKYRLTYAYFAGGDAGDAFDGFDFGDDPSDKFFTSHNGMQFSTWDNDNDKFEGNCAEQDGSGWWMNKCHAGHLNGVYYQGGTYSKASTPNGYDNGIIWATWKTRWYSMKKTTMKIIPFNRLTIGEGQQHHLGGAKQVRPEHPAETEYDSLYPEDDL

Sequence of UniProt P22897 (P22897 19-1389): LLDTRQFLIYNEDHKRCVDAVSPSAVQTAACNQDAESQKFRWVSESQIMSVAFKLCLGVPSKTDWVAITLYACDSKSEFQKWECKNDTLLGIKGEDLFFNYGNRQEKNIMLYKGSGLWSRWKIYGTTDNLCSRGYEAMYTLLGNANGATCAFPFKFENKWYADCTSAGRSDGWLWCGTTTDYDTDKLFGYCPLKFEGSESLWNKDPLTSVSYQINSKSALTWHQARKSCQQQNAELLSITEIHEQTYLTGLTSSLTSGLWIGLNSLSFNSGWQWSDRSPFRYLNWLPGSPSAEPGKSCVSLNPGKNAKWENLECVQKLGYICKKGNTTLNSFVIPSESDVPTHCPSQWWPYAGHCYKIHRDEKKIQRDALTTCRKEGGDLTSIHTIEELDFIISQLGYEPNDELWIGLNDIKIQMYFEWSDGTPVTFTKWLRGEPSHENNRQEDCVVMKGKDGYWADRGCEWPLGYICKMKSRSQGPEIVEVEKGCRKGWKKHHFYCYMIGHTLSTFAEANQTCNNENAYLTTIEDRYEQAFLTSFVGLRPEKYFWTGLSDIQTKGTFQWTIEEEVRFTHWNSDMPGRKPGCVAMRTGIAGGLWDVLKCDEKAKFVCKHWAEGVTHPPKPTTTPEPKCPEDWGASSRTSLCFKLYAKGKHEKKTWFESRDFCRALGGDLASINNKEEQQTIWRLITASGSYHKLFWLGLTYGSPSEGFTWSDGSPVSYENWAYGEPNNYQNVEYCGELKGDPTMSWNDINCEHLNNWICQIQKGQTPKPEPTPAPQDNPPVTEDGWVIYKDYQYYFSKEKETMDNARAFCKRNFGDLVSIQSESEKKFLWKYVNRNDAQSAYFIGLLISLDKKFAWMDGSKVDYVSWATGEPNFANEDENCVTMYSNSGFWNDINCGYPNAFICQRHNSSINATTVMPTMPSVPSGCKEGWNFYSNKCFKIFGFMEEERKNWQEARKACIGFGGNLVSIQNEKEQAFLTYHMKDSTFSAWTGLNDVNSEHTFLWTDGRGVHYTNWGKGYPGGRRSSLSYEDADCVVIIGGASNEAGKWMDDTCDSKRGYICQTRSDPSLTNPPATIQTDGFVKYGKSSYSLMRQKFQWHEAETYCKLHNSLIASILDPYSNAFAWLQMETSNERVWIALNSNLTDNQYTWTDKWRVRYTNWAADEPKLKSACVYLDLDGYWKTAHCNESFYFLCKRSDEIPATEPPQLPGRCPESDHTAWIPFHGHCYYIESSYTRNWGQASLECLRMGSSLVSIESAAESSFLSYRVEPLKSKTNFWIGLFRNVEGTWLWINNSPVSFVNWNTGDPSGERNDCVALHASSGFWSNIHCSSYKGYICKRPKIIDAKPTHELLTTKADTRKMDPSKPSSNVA

## tenecteplase copy Mingfule 16 mg/vial (CSPC Recomgen Pharmaceutical, Guangzhou, Co., Ltd.) (enzyme)
[1]
  similarity score to Metalyse (SPR sensorgram comparison): 30% and 17% and 25%
[2]
  similarity score to Metalyse (SPR sensorgram comparison): 8% and 9% and 10%
[3]
  similarity score to Metalyse (SPR sensorgram comparison): 5% and 6% and 9%
[4]
  similarity score to Metalyse (SPR sensorgram comparison): 53% and 37% and 46%

Reference: article PMC11695638
